Reference: patent US20200216536A1
Where “and” joins values, the source holds several entries; their conditions need not be identical. Equal entries are not always repeated.

How the values were obtained:
canine FcRn [1] = biological target: T1, canine FcRn (UniProtKB-E2ROL6 [FcRn] and UniProtKB-E2RN10 [canine beta-2-microglobulin]) (canine); experiment: SPR Biacore 8K, pH 5.5, Fc captured on BSA via SASA tag, FcRn 100-800 nM
canine FcRn [2] = biological target: T1, canine FcRn; experiment: SPR Biacore 8K, pH 5.5, Fc captured on BSA via SASA tag, FcRn 200 nM
canine FcRn [3] = biological target: T1, canine FcRn; experiment: as above; remark: listed apart in the source
canine FcRn [4] = biological target: T1, canine FcRn; experiment: as above; remark: listed apart in the source
canine FcRn [5] = biological target: T1, canine FcRn; experiment: as above; remark: listed apart in the source
canine FcRn [6] = biological target: T1, canine FcRn; experiment: as above; remark: listed apart in the source
canine FcRn [7] = biological target: T1, canine FcRn; experiment: as above; remark: listed apart in the source
canine FcRn [8] = biological target: T1, canine FcRn; experiment: as above; remark: listed apart in the source
canine FcRn [9] = biological target: T1, canine FcRn; experiment: as above; remark: listed apart in the source
canine FcRn [10] = biological target: T1, canine FcRn; experiment: SPR Biacore 8K, pH 5.5, Fc captured on BSA via SASA tag, FcRn 400 nM; average of the 12 wild-type runs

B1: wild-type canine IgG.B Fc (CH2 and CH3 domains) with SASA tag (Fc fusion, not shown: small tags and cut ends)
chain: APEMLGGPSVFIFPPKPKDTLLIARTPEVTCVVVDLDPEDPEVQISWFVDGKQMQTAKTQPREEQFNGTYRVVSVLPIGHQDWLKGKQFTCKVNNKALPSPIERTISKARGQAHQPSVYVLPPSREELSKNTVSLTCLIKDFFPPDIDVEWQSNGQQEPESKYRTTPPQLDEDGSYFLYSKLSVDKSRWQRGDTFICAVMHEALHNHYTQESLSHSPGK
For B1, the Kd (canine FcRn [1]) was 3150 nM, the koff (canine FcRn [1]) was 0.527 s⁻¹ and the kon (canine FcRn [1]) was 168000 M⁻¹ s⁻¹. The Kd (canine FcRn [2]) was 884 nM and 862 nM, the koff (canine FcRn [2]) was 0.21 s⁻¹ and 0.218 s⁻¹ and the kon (canine FcRn [2]) was 237000 M⁻¹ s⁻¹ and 253000 M⁻¹ s⁻¹. For the same binder, the Kd (canine FcRn [3]) was 639 nM and 692 nM, the koff (canine FcRn [3]) was 0.17 s⁻¹ and 0.171 s⁻¹ and the kon (canine FcRn [3]) was 267000 M⁻¹ s⁻¹ and 247000 M⁻¹ s⁻¹. The Kd (canine FcRn [4]) was 1560 nM and 754 nM, the koff (canine FcRn [4]) was 0.179 s⁻¹ and 0.182 s⁻¹ and the kon (canine FcRn [4]) was 115000 M⁻¹ s⁻¹ and 242000 M⁻¹ s⁻¹. For the same binder, the Kd (canine FcRn [5]) was 1710 nM and 2660 nM, the koff (canine FcRn [5]) was 0.288 s⁻¹ and 0.326 s⁻¹ and the kon (canine FcRn [5]) was 168000 M⁻¹ s⁻¹ and 123000 M⁻¹ s⁻¹. For the same binder, the Kd (canine FcRn [6]) was 2050 nM and 2990 nM, the koff (canine FcRn [6]) was 0.31 s⁻¹ and 0.315 s⁻¹ and the kon (canine FcRn [6]) was 151000 M⁻¹ s⁻¹ and 105000 M⁻¹ s⁻¹. The Kd (canine FcRn [7]) was 8990 nM and 3110 nM, the koff (canine FcRn [7]) was 0.347 s⁻¹ and 0.354 s⁻¹ and the kon (canine FcRn [7]) was 38700 M⁻¹ s⁻¹ and 114000 M⁻¹ s⁻¹. The Kd (canine FcRn [8]) was 502 nM and 784 nM, the koff (canine FcRn [8]) was 0.169 s⁻¹ and 0.207 s⁻¹ and the kon (canine FcRn [8]) was 336000 M⁻¹ s⁻¹ and 264000 M⁻¹ s⁻¹. For the same binder, the Kd (canine FcRn [9]) was 955 nM and 1310 nM, the koff (canine FcRn [9]) was 0.181 s⁻¹ and 0.209 s⁻¹ and the kon (canine FcRn [9]) was 190000 M⁻¹ s⁻¹ and 159000 M⁻¹ s⁻¹. It also gave a Kd (canine FcRn [10]) of 566 nM.
